pKd: −log10 of the molar value.
Biological target: GST-tag DNA polymerase (pol) β, wild-type (human) (UniProt P06746)
Assay: SPR

X-ray cross-complementing protein 1 (XRCC1) V86R, 6x-his tag (from UniProt P18887 1-633) (natural protein)
pKd: 5.57

— paper PMC11090158
